This note sets out measurements from publication PMC7095341.

What is called Kd is a measure of binding affinity in units of concentration. What is called koff is a measure of how fast the partners let go of each other. Read a low koff as a long-lived complex. Usually kon stands for the rate constant with which the complex forms. A high value points to fast association.

The target in this assay is MERS-CoV spike receptor binding domain (RBD), residues 367–606, His-tagged (MERS-CoV), K0BRG7. Nature of the assay: SPR. As to conditions: remark: other sources report otherwise.

B1: human CD26 (dipeptidyl peptidase 4), residues 39–766, His-tagged, P27487 39-766 (receptor)
chain: SRKTYTLTDYLKNTYRLKLYSLRWISDHEYLYKQENNILVFNAEYGNSSVFLENSTFDEFGHSINDYSISPDGQFILLEYNYVKQWRHSYTASYDIYDLNKRQLITEERIPNNTQWVTWSPVGHKLAYVWNNDIYVKIEPNLPSYRITWTGKEDIIYNGITDWVYEEEVFSAYSALWWSPNGTFLAYAQFNDTEVPLIEYSFYSDESLQYPKTVRVPYPKAGAVNPTVKFFVVNTDSLSSVTNATSIQITAPASMLIGDHYLCDVTWATQERISLQWLRRIQNYSVMDICDYDESSGRWNCLVARQHIEMSTTGWVGRFRPSEPHFTLDGNSFYKIISNEEGYRHICYFQIDKKDCTFITKGTWEVIGIEALTSDYLYYISNEYKGMPGGRNLYKIQLSDYTKVTCLSCELNPERCQYYSVSFSKEAKYYQLRCSGPGLPLYTLHSSVNDKGLRVLEDNSALDKMLQNVQMPSKKLDFIILNETKFWYQMILPPHFDKSKKYPLLLDVYAGPCSQKADTVFRLNWATYLASTENIIVASFDGRGSGYQGDKIMHAINRRLGTFEVEDQIEAARQFSKMGFVDNKRIAIWGWSYGGYVTSMVLGSGSGVFKCGIAVAPVSRWEYYDSVYTERYMGLPTPEDNLDHYRNSTVMSRAENFKQVEYLLIHGTADDNVHFQQSAQISKALVDVGVDFQAMWYTDEDHGIASSTAHQHIYTHMSHFIKQCFSLP
modifications: here or on the partner: N229-linked carbohydrate
In turn, B1 gave a Kd of 0.0167 µM, a koff of 0.00299 s⁻¹ and a kon of 179000 M⁻¹ s⁻¹.
